Reference: patent publication US20120258145A1

Target: stomach proteases of BALB/c mice
Assay: cell-based or functional assay

Substance: non-lipidated Omp19S polypeptide of Brucella abortus, recombinant from E. coli, with a histidine tai (from UniProt P0A3P1 22-177)
- inhibitory effect on the action of stomach proteases: > 30%
